# System: Escherichia coli TOP10
# Assay: shrunken log2 fold change of peptide-encoding DNA abundance (4.5 h post-induction vs induction); higher = less antimicrobial activity (less host growth inhibition)
# Settings: time post-induction: 4.5 h; library: site-saturation at positions 5, 18, 19, 20
# 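Note: peptides expressed intracellularly from a pBAD plasmid library in pooled LB shake-flask culture, induced with 0.3% L-arabinose, DNA abundance read by NGS, three biological replicates, DESeq2 with apeglm shrinkage.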
row,Sequence,shrunken log2 fold change
1,RRIRDRPPRLPRPRPRPSSYPRP,-0.738
2,RRIRTRPPRLPRPRPRPIKRPRP,-0.0164
3,RRIRQRPPRLPRPRPRPGKYPRP,-0.17
4,RRIRARPPRLPRPRPRPMQVPRP,0.277
5,RRIRVRPPRLPRPRPRPNANPRP,0.063
6,RRIRGRPPRLPRPRPRPQSGPRP,0.0868
7,RRIRIRPPRLPRPRPRPARCPRP,0.0563
8,RRIRVRPPRLPRPRPRPFQMPRP,-0.333
9,RRIRERPPRLPRPRPRPNTIPRP,-0.45
10,RRIRWRPPRLPRPRPRPRLAPRP,0.84
11,RRIRPRPPRLPRPRPRPQESPRP,-0.0337
12,RRIRERPPRLPRPRPRPCSEPRP,0.0641
13,RRIRCRPPRLPRPRPRPPWKPRP,0.195
14,RRIRNRPPRLPRPRPRPCGSPRP,-0.0353
15,RRIRLRPPRLPRPRPRPVLEPRP,-0.335
16,RRIRSRPPRLPRPRPRPMMFPRP,0.0732
17,RRIRCRPPRLPRPRPRPSSNPRP,-0.715
18,RRIRVRPPRLPRPRPRPVKMPRP,0.0133
19,RRIRARPPRLPRPRPRPYAEPRP,-0.104
20,RRIRGRPPRLPRPRPRPQNSPRP,-0.506
21,RRIRHRPPRLPRPRPRPIRCPRP,-0.115
22,RRIRIRPPRLPRPRPRPSRWPRP,0.324
23,RRIRTRPPRLPRPRPRPAEQPRP,0.0493
24,RRIRPRPPRLPRPRPRPVQPPRP,0.000272
25,RRIRLRPPRLPRPRPRPNVMPRP,-0.0669

row,Sequence,shrunken log2 fold change
1,RRIRDRPPRLPRPRPRPMGQPRP,0.0515
2,RRIRPRPPRLPRPRPRPHWRPRP,0.0957
3,RRIRPRPPRLPRPRPRPRYPPRP,0.202
4,RRIRCRPPRLPRPRPRPVHHPRP,-0.176
5,RRIRARPPRLPRPRPRPIPMPRP,0.0374
6,RRIRFRPPRLPRPRPRPLREPRP,0.618
7,RRIRRRPPRLPRPRPRPRNTPRP,0.436
8,RRIRSRPPRLPRPRPRPDWAPRP,0.236
9,RRIRHRPPRLPRPRPRPDFLPRP,-0.0554
10,RRIRSRPPRLPRPRPRPHWGPRP,-0.107
11,RRIRGRPPRLPRPRPRPPQVPRP,0.791
12,RRIRFRPPRLPRPRPRPRIFPRP,-0.102
13,RRIRKRPPRLPRPRPRPKMGPRP,0.0837
14,RRIRKRPPRLPRPRPRPQLKPRP,0.275
15,RRIRMRPPRLPRPRPRPIGAPRP,0.739
16,RRIRQRPPRLPRPRPRPWSAPRP,-0.277
17,RRIRERPPRLPRPRPRPGAIPRP,-0.187
18,RRIRMRPPRLPRPRPRPSLHPRP,-0.222
19,RRIRHRPPRLPRPRPRPVNNPRP,-1.17
20,RRIRQRPPRLPRPRPRPCGLPRP,0.131
21,RRIRCRPPRLPRPRPRPWGYPRP,-0.372
22,RRIRMRPPRLPRPRPRPSVNPRP,-0.0473
23,RRIRYRPPRLPRPRPRPFTAPRP,-0.311
24,RRIRARPPRLPRPRPRPRVCPRP,0.0904
25,RRIRPRPPRLPRPRPRPYWVPRP,-0.284

row,Sequence,shrunken log2 fold change
1,RRIRSRPPRLPRPRPRPSFGPRP,0.176
2,RRIRYRPPRLPRPRPRPLKDPRP,-0.00674
3,RRIRMRPPRLPRPRPRPGEGPRP,1.23
4,RRIRRRPPRLPRPRPRPCGGPRP,0.686
5,RRIRIRPPRLPRPRPRPEKQPRP,0.0192
6,RRIRLRPPRLPRPRPRPYAHPRP,-0.0393
7,RRIRERPPRLPRPRPRPIQKPRP,-0.184
8,RRIRSRPPRLPRPRPRPVYIPRP,-0.124
9,RRIRNRPPRLPRPRPRPQPGPRP,0.285
10,RRIRLRPPRLPRPRPRPNVYPRP,-0.186
11,RRIRNRPPRLPRPRPRPYWGPRP,0.0237
12,RRIRQRPPRLPRPRPRPCQKPRP,0.0369
13,RRIRNRPPRLPRPRPRPRSVPRP,0.258
14,RRIRSRPPRLPRPRPRPFVDPRP,-0.228
15,RRIRARPPRLPRPRPRPNYFPRP,-0.251
16,RRIRFRPPRLPRPRPRPDFEPRP,0.0453
17,RRIRERPPRLPRPRPRPWCGPRP,-0.245
18,RRIRYRPPRLPRPRPRPRLWPRP,0.14
19,RRIRDRPPRLPRPRPRPHPQPRP,0.256
20,RRIRRRPPRLPRPRPRPEYKPRP,-0.0169
21,RRIRRRPPRLPRPRPRPVWFPRP,0.0857
22,RRIRYRPPRLPRPRPRPIQSPRP,-0.00206
23,RRIRPRPPRLPRPRPRPMGQPRP,0.0687
24,RRIRHRPPRLPRPRPRPLGIPRP,-0.148
25,RRIRTRPPRLPRPRPRPMFKPRP,-0.122

# Reference: the supplement of paper PMC9112550, “Optimization of the antimicrobial peptide Bac7 by deep mutational scanning” (BMC Biology, 2022)
